Molecular target: RAD51 (UniProt Q06609 1-339)
Experiment: EMSA; 2 mM ATP, 5 mM CaCl2; EMSA, 10 nM DNA. RAD51: 20 mM Tris-HCl pH 8.0, 30 mM NaCl, 1 mM DTT, 2 mM ATP, 5 mM CaCl2, 0.2% Tween 20, 37 C 15 min. BG4: 20 mM Tris-HCl pH 8.0, 30 mM KCl, 1
Settings: protein: commercial; chain copies: 10; label: none (SYBR Gold stain); single strand

Sequence of RAD51 (Q06609 whole entry): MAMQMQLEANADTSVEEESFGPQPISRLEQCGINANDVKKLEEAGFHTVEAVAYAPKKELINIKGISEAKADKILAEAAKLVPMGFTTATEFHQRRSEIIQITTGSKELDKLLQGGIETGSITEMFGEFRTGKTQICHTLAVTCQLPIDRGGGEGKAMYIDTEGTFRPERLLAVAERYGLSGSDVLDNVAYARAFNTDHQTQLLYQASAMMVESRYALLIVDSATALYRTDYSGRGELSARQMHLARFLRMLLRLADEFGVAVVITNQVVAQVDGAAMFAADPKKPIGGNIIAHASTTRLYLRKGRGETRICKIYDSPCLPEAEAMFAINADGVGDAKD

B1: ss-DNA (ssDNA)
DNA: ATGGTGTGTGTAGGTTAATGTGAGGAGGAGAGGTGAAGAAGGAGGAGAGAAGAAGGAGGC
B1: binds.
